The test concerns the target commercially available renin (SIGMA). To be noted: scale: % remaining renin activities.

“rat acylglucosamine 2-epimerase obtained in example 4 (from UniProt P51607) (enzyme)” registered a Remaining renin activities (%) of 48.

Source of the values: patent publication US5994105.
